Tested on: Nc1nc2nc[nH]c2c(=O)[nH]1
Assay: purified protein, by the assay type
Details: guanine as substrate, 20 μM tRNA, 37 °C, pH 7.3

Substance | Km (other: V217G) | kcat (other: V217G) | Km (other: C145V/T146V) | kcat (other: C145V/T146V)
E. coli TGT V217G (Escherichia coli K-12; V217G) | 1.00 (0.10) μM | 0.000259 s⁻¹ | – | –
E. coli TGT C145V/T146V (Escherichia coli K-12; C145V/T146V) | – | – | 0.87 (0.18) μM | 0.00053 s⁻¹

Source: paper PMC3124622
